Laboratory results from US5889151A (priority 1989, dated 1999).

B1: Human gamma IFN: human gamma interferon, recognized by a different receptor (protein, UniProt P01579 24-161, looked up)
Interferon gamma: QDPYVKEAENLKKYFNAGHSDVADNGTLFLGILKNWKEESDRKIMQSQIVSFYFKLFKNFKDDQSIQKSVETIKEDMNVKFFNSNKKKRDDFEKLTNYSVTDLNVQRKAIHELIQVMAELSPAAKTGKRKRSQMLFRG

Key:
[1] = system: rhinoviruses; conditions: clinical trials; cited from earlier work
[2] = system: coronavirus; conditions: infected with a coronavirus; 37% with placebo; cited from earlier work
[3] = system: transfected 10B H7 clone; assay type: cell-based, mouse
[4] = system: mouse parental BTG cells; assay type: cell-based
[5] = system: human Wish cells; assay type: cell-based

Molecule | protection of volunteers infected with different rhinoviruses [1] | volunteers developing the symptoms of a cold [2] | Antiviral activities of interferon preparations tested on 10BH7 [3] | antiviral activity (in words) [3] | Antiviral activities of interferon preparations tested on BTG [4] | antiviral activity (in words) [4] | Antiviral activities of interferon preparations tested on WISH [5]
alpha interferon | 100% | 6% |  |  |  |  | 
B1 |  |  | < 1 × 10^3 units/ml | no antiviral activity | < 1 × 10^3 units/ml | no antiviral activity | 20 × 10^6 units/ml
